From the DeepSol protein solubility set

Assay: soluble on expression in E. coli; label from the status in PepcDB or PDB records

Sequence	soluble on expression in E. coli
MAHHHHHHMKRIVAPRRWSAINRVEHPPLMPKQLLQSVCGGLRWLESKSLAEFLAKRAIEEGFPCTKKQQRIFDARPPSSRPALRKSRLHKKCPARRSGGDVQRTEGSLEAPRTTGASGALVSSGAALALNSSAFDALVPLAKRKRLVSYDVLDCTFGSGFHTGVVLENGRPYTRVVAMDCDVEATVSAREIVDEFGADRFRFYARPMSEAKAMFGERSFDAVMIDPGPSSTQLENPERGFLLNDESDHALDMRYGPTHGLGALEYLNTVPQHALSGALASYELLTPQQSMKLARAIRQRRPFDGAQRVLEAVEEAGNELPEEGWGTQGSRRKTSMSWNFMTSLRCIVNHERHELSEALQNALLLLRTDGRLVVFSRLPWEEKLISTTISQHPHALLSYSEAIPIEDVQEHGHSRHTKMWIVTRTQGSSYVLKNSQTLTGEAVQESSMRWMSGLFAGQTFGFPANNFTFENKDGKDWAAVRRNKNSPPFDSDDDPRG	not soluble
MSLIKDIRTYKLCYEGINDERDALAIKGLAEHPMEIVATEIETSDGYVGYGESLAYGCSDAVQVTIEKILKPLLLKEDEELIEYLWDKMYKATLRFGRRGIAIAGISGVDTALWDIMGKKAKKPIYKLLGGSKRKVRAYITGGYYSEKKDLEKLRDEEAYYVKMGFKGIKVKIGAKSMEEDIERLKAIREVVGEDVKIAVDANNVYTFEEALEMGRRLEKLGIWFFEEPIQTDYLDLSARLAEELEVPIAGYETAYTRWEFYEIMRKRAVDIVQTDVMWTGGISEMMKIGNMAKVMGYPLIPHYSAGGISLIGNLHVAAALNSPWIEMHLRKNDLRDKIFKESIEIDNGHLVVPDRPGLGYTIRDGVFEEYKCKSEGHHHHHH	soluble
MGSDKIHHHHHHMFVNRRAELKILHSAYESLKRGEKVNVAIIGPRRIGKTELLLKFKEEVNGVVPYLNLQRIGSLESFIFAYTRELLYEIAKVVGMSIERSDLLTWDDLLILSAKLDLEREVKAIRDGTLETLFEMQEAILEKTGQKAVFILDEFQEVVNFKGFLETMRAVTEKQRNIAYFISGSAVRMMEEILAPKNPFFGQFKRVYLRGLPKEDTIELAKTTLERAGIEATHSALELIYKLTQGHPFYVLALCRRLIEEGFEKVKSRDVYYAFLTELLSEKGDIYMHLEYLFNESLSRAYKGPIHKQILLILAQEEGLRLSEIARRLNKPSGEVSNYLKFLLRTDLILKQGERYYFTDKLMRFWLAKTYLGITELELRRERFLEELVRELEEKYLKAKKELGIAKEAMIRERMREIFDIDFKPYRRGDVEFDGVAFRDGVYVLEIKWRNRPATYKDVKDFIRKVKGEFGSATMFFFSRSGFTEKAKELCEKEGVKMLTPKDLGIS	not soluble
SYETSQHNLDAVEAVLSRLQKQTGEMAAYMVPVGYRALCVSQRESMQALRCSFVQGQSQPLLRGASSKVMLAYMPAARCEKILRYFGEDPTLDKWQSEFEKIRRHGYAVSTSEIDPGVSGISAPVMKGSKLIGAISVMAPAHRVESNKQRIILHVLQAARALPPER	not soluble
MAHHHHHHMEENNQVEKNKTNQLCFVKMLVNNLVAGSVIGKNGSIITSIENKTGCSLKLSPTNSYFPNTQERVLVLCGKQEQINNALLIILDKIRQITVQSFQDKQNMNTVPKYTCRIVIPKSAASAIIGKGGQQIKQLQDSTGAKIQISSREDGLNERIISIIGPFESISDTAIKVTNSIQNDPNLKDLLNVIYNKDTNMNGRSSLSQNFVNQVPLNGYVVPQQYGVFQHEQYMDVNMMNSLMRHSRDLFNLPCEISIQI	not soluble
MKVLEERNAFLSDYEVLKFLTDLEKKHLWDQKSLAALKKSRSKGKQNRPYNHPELQGITRNVVNYLSINKNFINQEDEGEERESSGAKDAEKSGISKMSDESFAELMTKLNSFKLFKAEKLQIVNQLPANMVHLYSIVEECDARFDEKTIEEMLEIISAYA	soluble
MGSDKIHHHHHHMTDDSLFLIDVDKILRTKAPKQYKYIPKFVVSYLKKIVHQDEINVFLNESKDKLGVDFLEACMEFLDAKVEVKGIENLPKEGLYTFVSNHPLGGQDGVALGYVLGRHYDGKVKYLVNDLLMNLRGLAPLCVPINKTGKQAKDFPKMVEAGFQSDDQMIMFPAGLCSRRQNGVIRDLEWKKTFIIKSIQAKRDVVPVHFGGRNSDFFYNLANVCKALGIKFNIAMLYLADEMFKNRHKTFTVTFGKPIPWQTFDKSKTPAQWAEYVKDIVYKL	not soluble
DVPLTPSQFAKAKSENFDKKVILSNLNKPHALLWGPDNQIWLTERATGKILRVNPESGSVKTVFQVPEIVNDADGQNGLLGFAFHPDFKNNPYIYISGTFKNPKSTDKELPNQTIIRRYTYNKSTDTLEKPVDLLAGLPSSKDHQSGRLVIGPDQKIYYTIGDQGRNQLAYLFLPNQAQHTPTQQELNGKDYHTYMGKVLRLNLDGSIPKDNPSFNGVVSHIYTLGHRNPQGLAFTPNGKLLQSEQGPNSDDEINLIVKGGNYGWPNVAGYKDDSGYAYANYSAAANKSIKDLAQNGVKVAAGVPVTKESEWTGKNFVPPLKTLYTVQDTYNYNDPTCGEMTYICWPTVAPSSAYVYKGGKKAITGWENTLLVPSLKRGVIFRIKLDPTYSTTYDDAVPMFKSNNRYRDVIASPDGNVLYVLTDTAGNVQKDDGSVTNTLENPGSLIKFTYKAK	soluble
MISGHGDFPIALKESSGMIFGEENNLIAVPFFKGEGIQTLQEKYHQALKDIPEEHEVLFLVDIFGGTPYNAAASFIAEDQRMDMAAGVNLPILLEVLSLREHLALKDLLNNLKAMSQQSFQVCSEHLEKVKTANQD	not soluble
MGSDKIHHHHHHMIKSKLKGFAAVTVACLAVTACGSDSNNEDGTDQNATYVQFYNASAGSTATALKVADKTYESVIYGDTMPRFTSTAGVSAIEVMAKDASDKDISIYKEDIDLKVATDHFFVLHGDFAEPKLLNINYSRTELDKLNEVAENSKMQLLIANTAVHAQAFDAYVSKSTQTFADAVMLGSVAYGEASQPQVMDTGEYKVYLTPAGTTNVSYTTANIKFSAKVPYKLIIREGFGASDSKITLDSVDSTTNVRNHVALEASVDYRVFNGLGSHIIDVKVASSKQETLFSEVPSFGVTAYQGAEFNDFGVSVFDHGTQNKLLDNVLITLNQDDIKTIFIYEQATEQGSQVKAMEMKQTQTPSPYSFKFDIVSFADKSNLTVYFLKANDTIETAVNKITAVNPASPQSVTVPAGEYSIKVIAVENGTKTVVYASDLMDFSNEDNVTMVLNKDPATSFGYNLIKI	not soluble
MGSDKIHHHHHHMLTKSSTELVRQQNSALVLAALRRKGSLSHTEIAAQTGLASATISVITAELERSGIIAKTEQHVQGGRGRPRVLFEPRRGCGYVIVVRISSDVVQYSLADYGGILLDRFEDARSHDLRGTAAFGEVLAAALERLLVRSNISKDEVLAISISSKGLVAGGGARLIWSPVFGREQLDFVELLRPAWRARIMLSNESLLVAHALAVREEERERGFHALAAVSLGHSIGLGLARRGKSGELDVSAPDFGHMLHQASAGLCRCGSYGCIEAAAGFYGILRTAFEVPSDTIPAKFVPLSEVDKIAASARQGNRMGGYAFRQAGLALGNGISRMLSLYEPMPIFVTGPGTRYFDLLEKGLEEGLAHSLQVRLQGMPQIRVVPDEQRLVFDGHLNRALGAIDGDIAAAGHP	not soluble
MGSDKIHHHHHHMLKVDPTSPELSILLANPRGFCAGVDRAISIVERALELFEPPIYVRHEVVHNRYVVENLKQRGALFIDELDQVPDNSIVIFSAHGVSQAVRKEAKNRGLKVFDATCPLVTKVHLQVTRASRKGIECILIGHEGHPEVEGTMGQYDNPKGGVYLIESPEDVNNLQVNNPDNLCFVTQTTLSVDDTLDIITALQKRFPSIEGPRKDDICYATQNRQDAVRSMSSEVDLLIVVGSKNSSNSNRLRELAEKTGTQSYLVDTAADVEAMWFDGVKKVAVTAGASAPEVLVQQVVNAIAKLAPSIITEVEGRKEDTVFAVPAELR	not soluble
MNGFARRTEQKKQAIKQAVLELLQKIRDPREVTIQEIAKQAHVSPVTIYNYFGSKENLIRETLLDDVVRQVDEYEAFLKQAGSFEEKVKHTIFQEVKLFKEGWTDVMLRWMQEDEEFRRSIELLNETRVLPLVVDMIREAQKKGEVDPRLSIEALLLYLNGWRELSEKIPASLYNERLVEDMVRLFFYGIKGETR	not soluble
MAGDPMKKTILLTMTTLTLFSMSPNSAQAYTNDSKTLEEAKKAHPNAQFKVNKDTGAYTYTYDKNNTPNNNHQNQSRTNDNHQHANQRDLNNNQYHSSLSGQYTHINDAIDSHTPPQTSPSNPLTPAIPNVEDNDDELNNAFSKDNKGLITGIDLDELYDELQIAEFNDKAKTADGKPLALGNGKIIDQPLITSKNNLYTAGQCTWYVFDKRAKDGHTISTFWGDAKNWAGQASSNGFKVDRHPTRGSILQTVNGPFGHVAYVEKVNIDGSILISEMNWIGEYIVSSRTISASEVSSYNYIHLEHHHHHH	not soluble
MQQQVAPVPVIGVTADVLQMQANMKSLKSQLTNAPYGDSPLLKYNANPEIDGKSSPASTQRQLRFLAAKKGALSSSSDAQDSSFIIPPISKVMSDLSPAVTRSADVTKDLNYTSKEAPPSLARGLRNSTFNPNMSLTNRSVHESSALDKTIDSALDASMNGTSNRLGVRGSVRRSNLKQLDMSLLADSSRVGRESRVADPDALPRISESERRQDVVTSTPAVDPVQAVIQRHNDRNRDPPSLNLDTTCDEHTGLEPVSAATSSAASVVSTPSEETVNVNSAAGVKLTKPDYFSLPTINEMKNMIKNGRVVLEDGLTVGRSSYGSVYWPGRVELKDVALDEIVVFRHREVTVYPNEEEKAPEGQELNRPAEVTLERVWYTDKKTKKEVRDVVKLSEIGWREHLERQTIRMGAAFKDFRAETGSWVFRVDHFSKYGLADDDEPMDGSPPQQALQASSPLQVIDMNTSARDVNNQVQRKKVHKATDAHHQEIILERVPAPAALGDVVPIIRRVNRKGLGGGTLDDSREESCIGNMTTEFNESGHDSIIEEGQQPEKKPKLELLADLEYESSRFIRNLQELKVMPKANDPAHRFHGGGHSAKMIGYGKSKLIDIGIVKGRSSHVGWSETGCLVWSAQPRHNQVLFGTIDRTSDVNENTLISMLDVNVHVSETSRKGPSSQSNSVKSSLTSNFVTYSDSYSSMFAKYIDVAQAGGYDGHVSVWKLISALFPYERREGWSFERGEEIGEWLRTEAVKSVPDDRSADTSSNGVWNQLCLGDIDKAFQIAIDNNQPQLATMLQTSAVCPEATVHCFKAQLDNWKKCETLHLIPKETLKCYVLMSGLSHYEWDQDGKNHSINCLDGLNWIQALGLHVWYLRAWTGLEESYDAYQKDVNAGRAASNRGDLPGELIKLACESQHSVEVVLDCAAGENPNDYFLQWHVWSLLYSVGYRTMSKTSETRLHRNYSSQLEASSLSKYALFVLQHIDDDEERSTAVRSLLDRIARFTDNDMFDSISEQFDIPSEWIADAQFSIAKSVDDSTQLFELAVAAKNYLEICRLFVDDIAPTAVVAGDHDALKAACAMVRPFENQIPEWGATGMVYTDYCRLINLIENDAEEELLQDVLESLETRLHAPTISKNSLQKLSLQTIGRVLFEYRADKNTLPEWTKLLGHRQMFKIFRDRSSWGIERFTIEFD	not soluble
MVIWFFYGFRKIMHLSLKRIIVKCKMSQLDRTSLIQYFNSNGVLISPEALDKLIKYSSSSLIEDLIKNSDGYIDEKYVERYVSRPKVRNDYEVYLPDVRFNASIEDFRKMFVSKYEKLSKIITSSSSMRGSISIKTAKRSQGEVKVVGMVSEVSMTKNGHKRIVIEDLDDSITAIVMKDRGPVNEIILEDEVIGIIGSVSQSSKDPVIFVNEIIRPDIPYRVIDEEKHEPVYVASISDIHVGSKTFRKNEFEAMVRWISGSDPDASRVKYLILSGDVVDGIGVYPDQENDLEILNPLEQYANLAEYLVDVPEDVKVFVMPGNHDTVRLSEPQPVFPGKIRDLFEPNVAFLPNPYNLKLEGKNVLVYHGMSLNDMIELIPGANYDSIGKAIEAILVRRHLSPKYGGNTPMIPSAVDYHVIEEVPDIFITGHIHSHYIGNYKGVRYVNSSTWQSQTEYQKMMNFNPKPSKLTLFDLYSRSVIVKDFDTTLLEHHHHHH	not soluble
